B1: Sense Hot: 337 bp ssDNA HDR template, sense strand, with 4 bp [ATAG] deletion, electroporated with Cas9 RNP (nucleic acid)
sense: GTTTCGCTATTCAAATTGGCTTGATAGGTTGTATATGTTGGTGGGGACAATGGCTGCCATCATCCATGGAGCTGCACTCCCTCTCATGATGCTGGTTTTTGGAAACATGACAGCTTTGCAAATGCAGGAATTTCAAGAAACAAAACTTTTCCAGTTATAATTAATGAAAGTAAGTATTATTTGTGGCACTGATCTTAGAGGTTTGAAGAAAAATCTGTTACTTAGAAGGATGTTTAGCCCTCATTAAATACATTAGTGTGTTTATTTCTGGGGGAAAAGGGAGGAGTCTGAGCTACAGTTAATATTGGTAATAAGTTTGAGAAGATAATAATCATAA
B2: Anti Hot: 337 bp ssDNA HDR template, antisense strand, with 4 bp [ATAG] deletion, electroporated with Cas9 RNP (nucleic acid)
antisense: CAAAGCGATAAGTTTAACCGAACTATCCAACATATACAACCACCCCTGTTACCGACGGTAGTAGGTACCTCGACGTGAGGGAGAGTACTACGACCAAAAACCTTTGTACTGTCGAAACGTTTACGTCCTTAAAGTTCTTTGTTTTGAAAAGGTCAATATTAATTACTTTCATTCATAATAAACACCGTGACTAGAATCTCCAAACTTCTTTTTAGACAATGAATCTTCCTACAAATCGGGAGTAATTTATGTAATCACACAAATAAAGACCCCCTTTTCCCTCCTCAGACTCGATGTCAATTATAACCATTATTCAAACTCTTCTATTATTAGTATT

System: ABCB1 (MDR1) gene, exon 4
Experiment: CRISPR/Cas9 HDR template insertion (ABCB1-1Δ knock-in) in liver organoids, amplicon sequencing
Assay type: cell-based, canine
Description: The HDR template was a Megamer single-stranded DNA (ssDNA) fragment ordered from IDT. It was designed with 35 bp homology arms with a total length of the ssDNA being 337 bp. The HDR template used the exact sequence as the canine organoids were derived from, with the only difference being the 4 bp deletion [ATAG] near the middle of the strand. Both the positive and negative strand were reconstituted separately to determine which incorporation was most efficient.
Approximately 500,000 cells were pooled for each electroporation cuvette. Media was removed from the wells, and organoids were resuspended in 500 μL Advanced DMEM/F12 (Gibco; Ref 12634-010). Organoids were centrifuged at 700 g at 4° C. for 5 min to form a pellet. Media was removed down to 500 μL, and the pellet was resuspended with 500 μL of TrypLETM Express (Gibco, Ref 12604-021) and pipette mixed approximately 15 times to assist in dissociation. Organoids were immediately placed in the hot water bath for 10 minutes at 37° C. and halfway through they were briefly (1 s) vortexed twice. After incubation, the sample was pipette mixed (5 times) and 10 μL of the sample was taken to determine cell concentration and check for successful dissociation. As described in Merenda et al. 2017, clusters of 10-15 cells increased survival post electroporation compared to a single cell suspension (Merenda et al., 2017). Immediately 6 mL of Advanced DMEM/F12 was added to stop the chemical dissociation. Again, organoids were centrifuged at 700 g at 4° C. for 5 min to form a pellet and the supernatant was removed.
During dissociation, the ribonucleoprotein (RNP) was prepared. 150 pmol of crRNA (IDT) and 150 pmol of tracrRNA (IDT) were mixed and heated for 5 min at 95° C. in a thermocycler. Next, the mixture was removed from the heat and allowed to cool to room temperature for ˜10 minutes. Then, 300 pmol of Cas9 Nuclease V3 (IDT) was added and incubated for 10 min at room temperature (RT).
The organoid pellet was resuspended in 90 μL of BTXpress electroporation solution (BTX; Ref 45-0801). […] The solution was added to a chilled cuvette and after the addition of the solution, the cuvette was checked for bubbles, the outside was wiped dry, and placed in a NEPA21 electroporator (Nepagene). The electroporation details can be seen in Table 6. A control GFP plasmid was electroporated separately to help determine the efficiency of electroporation. It is common to add a buffer or media solution to assist in cell recovery after electroporation. Immediately following electroporation, 400 μL of room temperature CMGF+ R/G organoid media as previously described was added to the cuvette, and the organoids were transferred to a 1.5 mL tube. The cell mixture was incubated for 30 min at RT then centrifuged at 700 g for 5 min to form a pellet. […]

[1] = cold shock: 30° C. for 48 hours after electroporation
[2] = incubation at 37° C. after electroporation

| Molecule | estimated efficiency of correct HDR template insertion [1] | estimated efficiency of correct HDR template insertion [2] |
| --- | --- | --- |
| B1 | ~0.0705% | ~0.0348% |
| B2 | 0% | ~0.00303% |

— patent US20240060050A1, “CANINE HEPATIC ORGANOIDS” (Iowa State University Research Foundation, Inc., priority 2021, published 2024)
